Measurements taken from the domain aggregation screens of Martell et al. (2025).

Assay: soluble fraction after stress (log2 fold change); higher = more stays soluble; pooled small domains, quantitative proteomics
Conditions: stress: pH 4
How it was run: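 Custom libraries of small protein domains were pooled and measured with high-throughput quantitative proteomics after pH 4 stress. The read-out is the fold change in the amount of each domain that stays soluble after the acid stress, taken as a measure of aggregation propensity. Fold changes are on a log2 scale, and higher values mean more of the domain stayed soluble.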

Sequence | soluble fraction (log2)
HMGQAEEVRYSTFLDEVRNGRIEQVVLQGEHIIGTRKDKTVFSVFNPETDYTALIGTLSKSGVTIEGRP | 0.103
HMGQARQSAIRELGNDPTSGKKITVRSGRYGPYVTDGEVNASLRKGDDPQTIDLDRAIELLAARREKLG | -0.324
HMGQDGFIGLEAAKKLVLQKLGLTSAEFIKAELDAEDRKYELELIVDGIEYDFDIDAYSGAFLKQEQETV | 0.122
HMGQEEKDIFLKLINISGIGPKLALNILSGIEASELEEAVRNTNVTRLSMVPGIGQKTALRIIMELSDKLE | -0.881
HMGQELTMPDLKSMSRSNAEEKLKKMGLKLGAVFEENAKEPAGTVINQDPRSGSKITKGQTVDITVSLGEK | 0.0104
HMGQERAVPDVKGQSFDMAQGNISRAGLKAVVTDSVYDSYARPGTVVEQSPIPLAKIKRGGTVYLTLVA | -0.0752
HMGQGSAFVYYEVLPKQTEYSLTRKLGLGYADLLSLNPQLARGLQAGMVLKIPRDKAGNLEVKNDLILE | 0.165
HMGQISLSVNAIPEKAEVILDGNSIGNTPIRKNTITPGSHMFEIEKKGYAPISYDIYVNPSKAINLDFFM | -0.153
HMGQKDYKTRLQEYFAKQGLKVNYEDTSHGPDHNKNFSTDVFLDGKIIGSGIGKSKKSSQQSAAKDALNIL | ≥ 0.43
HMGQLIGKEEAKQIALSRAGVAEGDISRYESELDTDDGKTKYEISFHVGRVEYDIEINAVTGAVEKFEMDN | 0.0113
HMGQTDTIIKTTTDLYYEMSTMSDDDKLVVAQTLRDVWMAVGRWSGKLSKKQREKVAEVKRVLGE | -0.5
HMGQVAKPPLKELGADPVTGKPMVLKDGRFGPYVTDGEYNASLRKDDDIETIGVERAAELLQIRREKGP | -0.0291
HMGQVGIPFSDFLAEVENGQVREVVIKGNDISGTFNDNRGFSTYAPNDPNLVEKLTKRGVVINAQPTE | 0.123
HMGQVSEAGELEVAADRVIAANPEAVTKYKSGNENILQFLVGQMMKETKGAANPQVAAEILRKKIV | 0.0296
HMGRELDLNQRVYDFIHDIADEVRTDEGTFSANQMMERFLFPGDLQSVPIGRLSGGERRRLYLLSVLMVKI | -1.15
HMGRFPSLTPVVIDALTAQYREHPGWTVQLHVDNLRVVLAANQTPLPSYPTIRRYLLAQGMRRQTRP | -0.176
HMGRLNMRRIRDVLRLKFGQGLSERQVAASLGLSKTSVGTYLHRARQAGLTWPLPQGLDDDGLELLLFP | 0.0376
HMGRMTRKDRALATDLYGRIVGNVDDFHEGRIDYETFSERQRGLWTTLDAAGPEVKRAVLADIRERL | 0.23
HMGRWQPSTSAKQHGESALLLERLLHLERLTVSEAFHVLTINHRLNLSLPEYRSLLAVVQLPK | -1.31
HMGRYDWIEQIDDPVLAERLKHLTEDDLELLTRYVFEDATQKELASQYGIGQQSVSKRLKKLKSFLTK | -0.683
HMGSATAPDLKGLTYEQAQTKAEDAGYNIEKGEDVYDNDVEKGKVASQDPEAGAEAKEGSVITVNISK | 0.168
HMGSFAADVGRMVRLGRAKRGISRRKLAADSGISERYLAQIEGGQGNPSVNVLKAIADAISVPVFELLPH | -0.197
HMGSFDDAPDQLRQSILQLLAEGPLPPSAITERLNISREDATEALQQLLDEQRIFAVNGMLQLQPG | -0.538

Sequence | soluble fraction (log2)
HMGSFTDKQIKQAFGVLNDPRFKQGNYDGAVAVINKIAPGLADHPSVANALKRANEATQDIAQQTQA | 0.161
HMGSGQIRYITENTVRVVYGTSKENEFVFQDGKPYPKDTPYHIHYTRNLEEYFMSGVEHDKNSKIILKVD | -0.792
HMGSGVNVTVNGKRMNLPLKDDHIIFVDIFNYIDFDLSKPKGSIVLKLNGRDAGYTDPIKDGDVIDIYWQ | -0.686
HMGSIDYLVGSRLRQYRRLRGYSLIEFSAMLHRSKSAISKYERGEVSIDLRTLNEMARLLDIPLSGLLL | -0.283
HMGSIEASFEEDVRRYLARKSMTTTEISKKMRQKRPDMSRDQLMTLLANAIKRIKPIKKKIKGTLYLSLE | 0.259
HMGSIMIIVLKENAPQQAAEKLMKEIRAKGLQIDVSKGTRKTVLGLVGDTSVIDMEHVQGYDYVDKVLRV | -0.674
HMGSKDLPFSTFMSEIDKGNITSVDIRGNEIQGTFANGTKFRTYSPNYPNLVEKLNGKGVSITAGPV | 0.211
HMGSKKITIYVSGEVKNPGIVTLNSDQRLASAVEKLGGVTENADMNNINLAMKLEDEMHYIIPKKGEK | 0.149
HMGSKQVSVPDVRNLDYERASQQLREAGFVVGDVLRIRDDRAPAGTVIAQSPAAPALVPENARVSLLVSSG | 0.00984
HMGSLAVVPSLTGKTLQEAQSKAADYGLALEIEGYVASTAVDYGRIVSQSPDAGFSVKSGSSVKVSVSAG | ≥ 0.43
HMGSLGRAIRSRREKMKVGLEELAAKTGLSESHISDIEEGRGFAPVGDILKIARALTIDPGELLK | 0.426
HMGSLGSLLKSVRNQRGLSRQQMAQSLNIGVRAIEQIEEGERKPDLELLNRYARGLMDPSVT | -0.138
HMGSLKEKIVLLEKLYQQNPSEEIKLLLINTYQLNHQYIQARKLFFTLTPEQKEKLPLASEFLIFL | -0.725
HMGSLNDQVMKYIDALPSAFNKRELDFLIERGVKEFALNGEYLEKAIINEYKLTADTYHRER | 0.129
HMGSLQPLLLAAIDALQTHIRSGLPFRVEERLAELDQFRTELQNGSVPPQRGVNRLWAFYEDEFRL | -0.386
HMGSLRSALDGIPGIGEQYQKRLLAQFGSVKAMRSASVEDFEAVRGIGRAKAQALYDALHAG | 0.13
HMGSLVVVPNLVGQNYDEVKLSTKYSDFEIVQKNTEYSEAPAGQIIKQDPEAGTKVKKHSTINVTVSK | -0.287
HMGSQELIQLGERIRQKRKDSHLTQETFAEKAGISVNTVSRIEGGQAAMSIEIFAKLVEILDADANELLG | -1.07
HMGSRAEAKEFLQTMLADGRQLATDMEEARQAHDIADRTLRRARKELNVQVYRDGNAWYWELPTPIK | -0.567
HMGSREVPFSDFISKVESGSVLEVVLRGRQVEGLTDANERFQTQIPNYPALFEILERNQVRTRVEPT | -0.814
HMGSTATVIASRLNMRASASTTGALLTKIPNGATVTVLGTTGAWSHIRYGSYTGYVMSQYLRING | -0.211
HMGSTVRIVVPAADIPAYKDIQPSDLEYREVPKDEISEDAVTDPQEVINKYSTSPLYAGWPINKNIIET | -0.202
HMGSYANAWQLAEHAAKDMLGEVIYLLDGKEVHAGILETMSAESIKTASAENVDGKVVIRLVSK | -0.371

Sequence | soluble fraction (log2)
HMGSYIGEAKAKEIALSHAGVSASQATFVRSQFEYDDGRAVYDVDFWSGNKEYDYEIDAKSGTIVSYDFD | 0.0669
HMGSYVVQLGAFAIRANAEKLAREVDGSIATSGRFSLVRVGPFTSRGQAEQALAKLRARGYSDALIHSL | -0.234
HMGTDFRPVFQYVDELVRAGEFTNLKGMIYFTDGRGIFPEKKPDYDAAFVFLDDGYDPPDVPVWAIKLVL | -0.709
HMGTGSSAERITMLNSILERQIQAMEIQGNPDAPIVNIQKIYTTLQRIVETAGLKDVDQFFMNPLQGQKEM | -0.407
HMGTIRAPMPGTILKINVVDGDSVTKGDVLLILESMKMENSITSPKTGSVTSVYVSEGDPVQHGETLIDL | -1.22
HMGTISKRINPSGTTVYRAVIRIRKNGYPNFTESRTFSKKSMAAEWVKRREAEIELNPDILFG | -0.0195
HMGTLSLLVQKLMAVGLEGAKASEIVERFDRERIERQINALPSRKIKSSRTGFLIRAIELDIPVE | -1.31
HMGTPKMPLSLYLSMVENLRSLKRFALVNQQVKDGFVFFNDVAGIKRLQELLNYHNTGEKPSE | -0.287
HMGTRIQAVMEDIQSRIAARTYLPGTRLPSVRAQAQAMQVSVSTVVEAYERLAAEGVIASRPGSGFYVAGP | ≥ 0.43
HMGTRPAYAADAPNPQKRFIYHRIVDQLRNKATGAPISYRAIAAETGVSVQTVINIKNRMNQMLSEK | ≥ 0.43
HMGTRPIQIASFSKEENAKRAVEALAKIGITAQPQKSGSATKAVWGVVANGDADLLAKIKAAGFADAYFL | 0.179
HMGTRTILGIDPGSRKTGFGIIRLDGSRTHYVSSGVIRIPDTALPERLKIIFASLNEIIQQFQPQEV | 0.107
HMGTRYVEFVIPGTGNHEVRIVSSNGSRQNVEVAGTYPGGARLRTKVDNGVRRVSFYVDNRLVEEKQ | -0.0183
HMGTSFKITFYKDAFQVDDGPIRMLNDPANQKFVDEVSQGYAPKELIGQGGKAPEIDIIDKRSENAPT | -0.0971
HMGTVFTDIMTDIASGKFPNVFPDSLEAQIQKNVTMAPDKLSATLQYGDKSVILPTTKGKEAAEAAVKAA | -0.648
HMGTYTSALDGIKGLGKKRKMLLLNTYKSIDVLKSVPLTELSQLIPREVAEALLTKLNRVDD | 0.116
HMGVDASVDSKLDLLSQVLDSDQVKEQLPEAVLEQLAQNLDRWRSLHEESELQDDDIAELNRLLGLFGLG | -1.67
HMGVEKHLRITGTSTVSWKDAIVQAVAEASKTIDYLSNVKIIEQRARIDGKKLVEYFVDLDLSFVID | -0.38
HMGVGITAPLAGNIFKIVVQPGDVVASGDVVLVLEAMKMETEIRAASGGTVSQVLVREGDAVDAGHTLITL | -1.49
HMGVGVTAPLAGNIFKIVKQPGDVVASGDVVLILEAMKMETEIRAAAGGTVKQVLVREGDAVDAGHTLMTL | -1.59
HMGVHSVVPDIKNKHYGEAKAILAANGLSIEISDSIYDRSVAPGTVVESWPKAGAIVKGDRAVFVTLTAF | -1.17
HMGVMTGAEFVGNTVASVERNLIIDTLKHTMGNRTTAANILGISIRTLRNKLKQYQNEGFDIPE | 0.185
